Assay: yeast display, Sf9 membrane polyspecificity reagent, FACS + sequencing; frameworks hold sequencing errors
Procedure, shortened: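 Nanobodies came from a synthetic yeast display library in Saccharomyces cerevisiae BJ5465, induced with galactose for 36–48 hours and stained for 1 hour at 4 °C with 10% biotinylated, detergent-solubilized Sf9 membrane reagent. Cells were enriched on streptavidin microbeads and then FACS-sorted, with low and high (top ~1%) gates set on anti-HA fluorescence for expression and streptavidin fluorescence for reagent binding. Each polyreactivity label reflects the gate a clone came from. Genes were amplified by colony PCR, sequenced by MiSeq 2 × 250 and filtered by CDR length.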

QVQLVESGGGLVQAGGSLRLSCAASGRIFSRNTMGWYRQAPGKERELVATISWSGSRTYYADSVKGRFTISRDNAKNTVYLQMNSLKPEDTAVYYCAARLWPSYLSYGKTGDYWGQGTQVTVSS
polyreactivity (PSR sort gate): high polyreactivity

QVQLVESGGGLVQAGGSLRLSCAASGRIFSRYALGWYRQAPGQERELDAAINKSGGSTYYADSVKGRFTISRDNAKNTVYFQMKSMKAEDTAVYYCTAVYYWYKGDYWGQGTQVTVSS
polyreactivity (PSR sort gate): high polyreactivity

QVQLVESGGGLVQAGGSLRLSCAASGRIFSRYAMGWYRQAPGKERELVAAINKSGGSTYYADSVKGRFTISRDNAKNTVYLQMNSLKPEDTAVYYCAAALGRRRTGYDYWGQGTQGTVSS
polyreactivity (PSR sort gate): high polyreactivity

QVQLVESGGGLVQAGGSLRLSCAASGRIFSRYAMGWYRQAPGKERELVAAIRWSGGRTYYADSVKGRFTISRDNAKNTVYLQMNSLKPEDTAVYYCAKYRYTVAGYNYWGQGTQVTVSS
polyreactivity (PSR sort gate): high polyreactivity

QVQLVESGGGLVQAGGSLRLSCAASGRIFSRYAMGWYRQAPGKERELVAAISRAASTNYADSVKGRFTISRDNAKNTVYLQMNSLKPEDTAVYYCNKRLYGYYGRYDYWGQGTQVTVSS
polyreactivity (PSR sort gate): low polyreactivity

QVQLVESGGGLVQAGGSLRLSCAASGRIFSRYAMGWYRQAPGKERELVAGITRSGTTTYYADSVKGRFTISRDNAKNTVYLQMNSLKPEDTAVYYCAAPPIRPNLYDYWGQGTQVTVSS
polyreactivity (PSR sort gate): high polyreactivity

QVQLVESGGGLVQAGGSLRLSCAASGRIFSRYAMGWYRQAPVKERELVATITRSGARTYYADSVKGRFTISRDNAKNTVYLQMNSLKPEDTAVYYCATPYKYVTGEDYWGQGTQVTVSS
polyreactivity (PSR sort gate): high polyreactivity

QVQLVESGGGLVQAGGSLRLSCAASGRIFSRYAMVWYRQAPGKERELVAAINKSGGSTYYADSVKGRFTISRDNAKNTVYLQMNSLKPEDTAVYYCNAVYYWYKGDYWGQGTQVTVSS
polyreactivity (PSR sort gate): high polyreactivity

QVQLVESGGGLVQAGGSLRLSCAASGRIFSRYVMGWYRQAPGKERELVAAISWNGGSTYYADSVKGRFRISRDNAKNTVYLQMNSLKPEDTAVYYCAARVRVTGTYYTKYDYWGQGTQVTVSS
polyreactivity (PSR sort gate): high polyreactivity

QVQLVESGGGLVQAGGSLRLSCAASGRIFSRYVRGWYRQAPGKEREFVASITWSGSSTYYADSVKGRFTISRDNAKNTVYLQMNSLKPEDTAVYYCAALGLLSPSPWGTHISEYDSWGQGTQVTVSS
polyreactivity (PSR sort gate): low polyreactivity

QVQLVESGGGLVQAGGSLRLSCAASGRIFSSNAMGWYRQAPGKERELVASISSTGSTKYADSVKGRFTISRDKAKNTVYLQMNSLKQEDSAVYYCAAGRYLWHFTFDYWGQGTQVTVSS
polyreactivity (PSR sort gate): low polyreactivity

QVQLVESGGGLVQAGGSLRLSCAASGRIFSSNAMGWYRQAPGTERELVASLSSTGSPKYADSVKGRFTISRDNAKNTVYLQMNSLIPEDTAVYYCAATQVRRGPAWGRDYWGQGTQVTVSS
polyreactivity (PSR sort gate): low polyreactivity

QVQLVESGGGLVQAGGSLRLSCAASGRIFSSYAMGWYRKAPGKERELVAAIRRGGGSTSYADSVKGRFTISRDNAKNTVYLQMNSLKPEDTAVYYCAADSPRGQVHYIGGYWGQGTQVTVSS
polyreactivity (PSR sort gate): low polyreactivity

QVQLVESGGGLVQAGGSLRLSCAASGRIFSSYAMGWYRQAPGKERELVARISYSGGSTYYADSVKGRFTISRDNAKNTVYLQMNSLKPEDTAVYYCNARYYGYGAGYRPYDYWGQGTQVTVSS
polyreactivity (PSR sort gate): high polyreactivity

QVQLVESGGGLVQAGGSLRLSCAASGRIFSTNAMGWYLQAPGKERELVAGINSGGSTNYADSVKGRFTISRDNAKNTVYLQMNSLKPEDTAVYYCNASLPVDSWYVQYGVDYDYWGQVTQVTVSS
polyreactivity (PSR sort gate): low polyreactivity

QVQLVESGGGLVQAGGSLRLSCAASGRIFSTYAMGWYRQAPGKERELVAAINSIGGRTYYADSVKGRFTISRDNAKNTVYLQMNSMKPEDTAVYYCAASRFRTGQEDDYWGQGTQVTVSS
polyreactivity (PSR sort gate): high polyreactivity

QVQLVESGGGLVQAGGSLRLSCAASGRIFSTYAMVWYREAPGKEMELVAAINKIGGSTYYADSVKGRFTISRDNAKNTVYLQMNSLKPEDTAVYYCAADAPYYPFRRYYYWGQGTQVTVSS
polyreactivity (PSR sort gate): low polyreactivity

QVQLVESGGGLVQAGGSLRLSCAASGRIFSTYVMGWYRQAPGKERELVAAIRNNGGSTYYADSVKGRFTISRDNAKNTVYLQMNSLKPEDTAVYFCAKKSFFTGRWWYDYWGQGTQVTVSS
polyreactivity (PSR sort gate): high polyreactivity

QVQLVESGGGLVQAGGSLRLSCAASGRIFSTYVMGWYRQAPGKERELVAAITWSGGSTYYADSVKGRFTISRDNEKNTVYLQMNSLKPEDTAVYYCAADEIYGYDYWGQGTQVTVSS
polyreactivity (PSR sort gate): high polyreactivity

QVQLVESGGGLVQAGGSLRLSCAASGRIFSVNAMGWYRQAPGKERELVAAITPGASTNYADSVKGRFTISRDNAKNTVYLQMNSLKPEDTAVYYCAAGWVSFEDWVLGSYYEFDYWGQGTQVTVSS
polyreactivity (PSR sort gate): low polyreactivity

QVQLVESGGGLVQAGGSLRLSCAASGRIFSVYALGWYRQAPGKERELVAAISSGDSTYYADSVKGRFTISRDNAKNTVYLQMNSLKPDDTAVFYCAATFPFHDGDYWGQGTQVTVSS
polyreactivity (PSR sort gate): low polyreactivity

QVQLVESGGGLVQAGGSLRLSCAASGRIFSWNAMGWYRQAPGKERELVARITNGGSTYYADSVKGRFTISRDNAKNTVYLQMNSLKPEDTAVYYCAAKYRYYWSSKSKGDYWGQGTQVTVSS
polyreactivity (PSR sort gate): high polyreactivity

QVQLVESGGGLVQAGGSLRLSCAASGRIFSYNAMGFYRQAPGKERELVAGITYGSTYYADSVKGRFTISRDNAKNTVYLQMNSLKPEDTAVYYCAADLSYTSVHGYRSDTLMDYWGQGTQVTVSS
polyreactivity (PSR sort gate): low polyreactivity

QVQLVESGGGLVQAGGSLRLSCAASGRIFSYNAMGWYRPAPGKERELVASISWSGGRTYYADSVKGRFTISRDNAKNTVYLQMNSLKPEDTAVYYCAVRYRGYGYDWGQGTQVTVSS
polyreactivity (PSR sort gate): high polyreactivity

QVQLVESGGGLVQAGGSLRLSCAASGRIFSYNAMGWYRQAPGKERELVAAISSDGSTYYADSVKGRFTISRDNAKNTVYLQMNSLKPEDTAVYYCNADPGLYDVLYSSGDFDYWGQGTQVTVSS
polyreactivity (PSR sort gate): low polyreactivity

QVQLVESGGGLVQAGGSLRLSCAASGRIFSYNAMGWYRQAPGKERELVAAISYRGGSTYYADSVKGRFTISRDNAKNTVYLQMNSLNPEDTAVYYCNAEAYYPYGYDYWGQGTQVTVSS
polyreactivity (PSR sort gate): low polyreactivity

QVQLVESGGGLVQAGGSLRLSCAASGRIFSYNAMGWYRQAPGKERELVAGITSGGRTYYADSVKGRFTISRDNAKNTVYLQMNSLKPEDTAVHYCAASYVPARTRYYYWGQGTQVTVSS
polyreactivity (PSR sort gate): high polyreactivity

QVQLVESGGGLVQAGGSLRLSCAASGRIFSYNTMGWYRQAPGKERELVAAISWSGGSTSYADSVKGRFTISRDNAKNTVYLQMNSLKPEDTAVYYCATGSKRNPFYRGNYWGQGTQVTVSS
polyreactivity (PSR sort gate): low polyreactivity

QVQLVESGGGLVQAGGSLRLSCAASGRIFSYTAMGWYRQAPGKERELVAAITRVDNTNYADSVKGRFTISRDNAKNTVYLQMNSLKPEDTAVYYCNARQHQVRWWLREFDYWGQGTQVTVSS
polyreactivity (PSR sort gate): low polyreactivity

QVQLVESGGGLVQAGGSLRLSCAASGRIFSYTARGWSRQAPGKERELVAAISGSTGNTYYADSVKGRFTISRDNAKTTLYLQMNSLKPEDTAVYYCNKLGYKYDYWGQGTQVTVSS
polyreactivity (PSR sort gate): high polyreactivity

QVQLVESGGGLVQAGGSLRLSCAASGRIFSYYAMGWYRQAPGKERELVAAITSGGSTYYADSVKGRFTISRDNAKNTVYLQMNSLKPEDTAVYYCNVVSDFRYYYWGQGTQVTVSS
polyreactivity (PSR sort gate): low polyreactivity

QVQLVESGGGLVQAGGSLRLSCAASGRIFSYYAMGWYRQAPGKERELVARISWRGGSTYYADSVKGRFTISRDNSKNTVYLQMNSLKPEDSAVYYCAATSPYYRTGYDYWGQGTQVTVSS
polyreactivity (PSR sort gate): high polyreactivity

From the nanobody polyreactivity screen of Harvey et al. (2022)
